According to patent US20140314780A1, “Compositions Using Antibodies Directed to GPNMB and Uses Thereof” (Celldex Therapeutics, Inc., priority 2008, published 2014):

Target: T1, GPNMB (Homo sapiens, UniProt Q14956)
T1 construct: V5His; made in house
T1 sequence (Q14956 23-492): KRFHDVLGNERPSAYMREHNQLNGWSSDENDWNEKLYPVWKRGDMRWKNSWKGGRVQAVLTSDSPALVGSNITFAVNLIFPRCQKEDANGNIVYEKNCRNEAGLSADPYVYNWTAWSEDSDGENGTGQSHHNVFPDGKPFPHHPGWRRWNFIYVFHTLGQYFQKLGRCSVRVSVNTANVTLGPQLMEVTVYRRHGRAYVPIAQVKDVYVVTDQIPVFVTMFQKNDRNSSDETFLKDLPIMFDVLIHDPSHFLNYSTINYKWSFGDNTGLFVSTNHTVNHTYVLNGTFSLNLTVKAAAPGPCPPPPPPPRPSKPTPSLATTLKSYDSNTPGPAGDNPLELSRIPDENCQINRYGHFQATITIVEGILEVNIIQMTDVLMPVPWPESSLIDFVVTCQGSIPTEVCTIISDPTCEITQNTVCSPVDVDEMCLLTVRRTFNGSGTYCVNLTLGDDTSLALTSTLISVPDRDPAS
Test: Epitope binning of anti-GPNMB antibodies (competitive binding)
Details: six anti-GPNMB antibodies, three bins
From the text: Certain antibodies, described herein were binned in accordance with the protocol described in U.S. Patent Application Publication No. 20030157730. […] Competitive binding by antibodies from […] supports antibody specificity for similar or adjacent epitopes. Non competitive binding supports antibody specificity for unique epitopes.
Three bins were created to further test the binding of six anti-GPNMB antibodies. Bin 1 included GPNMB antibodies (1.2.1), (1.10.1), and (2.22.1). Bin 2 included GPNMB antibodies (2.3.1) and (1.15.1), and Bin 3 included GPNMB antibody (2.10.1). The results of the binning assays are provided below in Tables 4 and 5.

B1: Mab2.22.1: human anti-GPNMB antibody; VH SEQ ID NO: 164, VL SEQ ID NO: 173 (antibody, listed as Homo sapiens, V domains shown)
VH: QVQLEQSGPGLVKPSQNLSLTCTVSGGSISSGGYFWSWIRQHPGKGLEWIGYIYYSGNTYYNPSLKSRVTISVDTSKNQFSLKLSSVTAADTAVYYCARDYYYDTSGFSYRYDWYYGMDVWGQGTTVTVSSA
VL: DIQLTQSPSSLSASVGDRVTITCRASQGIRNDLGWYQQKPGKAPKRLIYAASSLQNGVPSRFSGSGSGTEFTLTISSLQPEDFATYYCLQHNTYPAFGQGTKVEIKR
B1 was tested, and the epitope bin was “Bin 1”.
